{"source": "the nanobody polyreactivity screen of Harvey et al. (2022)", "data": [{"test": "yeast display, Sf9 membrane polyspecificity reagent, FACS + sequencing; frameworks hold sequencing errors", "method_in_brief": "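In a synthetic yeast display library (Saccharomyces cerevisiae BJ5465), nanobody expression was induced with galactose for 36–48 hours. FACS gates were set low and high (top ~1%) using anti-HA fluorescence for expression and streptavidin fluorescence for binding of the Sf9 membrane reagent. Each polyreactivity label is drawn from the gate of origin.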", "values": [{"sequence": "QVHLGDSGGGLVQAGGSLRLSCAASGRIFWTYAMGWYRQAPGKERELVAAIRWSSGSTRYADSVKGRFTISRDNAKNTVYLQLNSVKPEDTAVYYCAADAFRSQRPYTYDYWGQGTQVTVSS", "polyreactivity (PSR sort gate)": "high polyreactivity"}, {"sequence": "QVHLGESGGRLVQPGGSLRLSCAASGCTFCPYAMGWSRQAPGKARELVAAISNGGGPKYADSVKCRFTISRDNAKHTVYLQMNSLKPEDTAVYYCAKTLWTGRAWYDYWGQGTQVTVSS", "polyreactivity (PSR sort gate)": "high polyreactivity"}, {"sequence": "QVHLHESGGGLVQAGGSLRLSCAASGTISYAGPMGWYRQAPGKEREFVAGIGVGSNTNYADSVKGRYTIIRDNAKNTLYLQKNSLKTEDTAVYYCAVAGYAPLGRPYWGQGTQVTVSS", "polyreactivity (PSR sort gate)": "low polyreactivity"}, {"sequence": "QVHLQERGGGLVQAGGSLRLSCAASGSIFYWPWMGWYRQAPGREREFVATITTGSNTYYADSMKGHLTNSRDNAINTVYLQMISQKPEDTAVYFCAVVGDGEIEHRYWGQGTQVTVSS", "polyreactivity (PSR sort gate)": "high polyreactivity"}, {"sequence": "QVHLQESGCGLVQAGGSLRLSCAPSGSIFVSVTMGWYRQAPGKERELVASIGRGSTTNHADSVKGRFTISRDNAKNIVYLLMNSLKPEDTAVYFCAALESYGKYHGYWGQGTKVTVSS", "polyreactivity (PSR sort gate)": "low polyreactivity"}, {"sequence": "QVHLQESGGGLVKAGGSLRLSCAASGNISNHNDMGWYRQAPGKEREFVAGITAGGITNYADSVKGRFTISRDNAKNTVYLQMNSLKPEDTAVYYCAASPDYAKSYGYWGQGTQATVSS", "polyreactivity (PSR sort gate)": "low polyreactivity"}, {"sequence": "QVHLQESGGGLVQAGGSLRLSCAASGTIFRFRNMGWHRQAPGKERELVAGINGGTTTYYADSVIGRFTISRDNAKNTVYLQMNSLKPDDTAVYNCAAGASRLTYYDYWGQGTQVTVSS", "polyreactivity (PSR sort gate)": "low polyreactivity"}, {"sequence": "QVHLQESGGGLVQAGGSLRLSCAASGTISQEDWMGWYRQAPGKEREFVAAIGLGSNTNYADSLKGRFTISRDNAKNSVYLQKNSLKPEDTAVYYFAVSVWQYSDHVYRGQGTQVTVSS", "polyreactivity (PSR sort gate)": "low polyreactivity"}, {"sequence": "QVHLQESGGGLVQAGGSLRLSCAASGTITVLYKMGWFRQAPGKEREFVASINYGTSTYYADSVKGRFTVSRDSAKNTVYLQMNSLKPEDTAVYYCAAAYRWQDVYRYWGQGTQVTVSS", "polyreactivity (PSR sort gate)": "low polyreactivity"}, {"sequence": "QVHLQESGGGQVQAGGSLRLSCAASGSISYASGMGWYRQAPGTEREFVASIDPGAITNYADSVKGRFTISHDNAKNTVYLQMNSLKPEYTAVYYCAARVSTTDSHGYWGQGTQVTVSS", "polyreactivity (PSR sort gate)": "high polyreactivity"}, {"sequence": "QVHLVASGGGLVQAGGSLRLSCAASGSIFRRYAKGSYRQAPGKERELGAGISSGGYTNYAASVKGPFTISRDNAKNNVYLQRYSLKPEDTAVYYCAANQYRDVRYRPVDYWGQGTQVTVSS", "polyreactivity (PSR sort gate)": "high polyreactivity"}, {"sequence": "QVHLVDSGGGLFQAGGILRLSCAASGRTIATNAMGWYRQAPGKERELVAGISWRVGRTYYADSVKGRFTISRDNAKNSVYLQMFSLKPEDTAVYYCAANPVRSRYGYWGQGTQVTVSS", "polyreactivity (PSR sort gate)": "high polyreactivity"}, {"sequence": "QVHLVDSGGGLVLAGGSLRLSCAASGRNFERYAMGWYRKAPGKERELVAAISSSATRTYYADSVKGRFTISRDNAKNTVYLQMNSLKPEDTAVYYCAAKGAARDGSSEYNYWGQGTQVTVSS", "polyreactivity (PSR sort gate)": "high polyreactivity"}, {"sequence": "QVHLVDSGGGLVQAGGSLRLSCAASGIIFTGNAMGWYRQAPGKERELVAGITGSGGNTYYADSVKGRFTISSDNAKNTVYLQMNCLKPEDTAVYYCAARRHIFLLIIWSGRVDYWGQGTQVTVSS", "polyreactivity (PSR sort gate)": "low polyreactivity"}, {"sequence": "QVHLVDSGGGLVQAGGSLRLSCAASGSTIRYYAMGWYRQAPGKEREMVAAITSSGTSTYYADSVKGRFTISRDNAKNTVYLQMNSLKPEDTAVYYCAAPPVYKWVSSRYDYWGQGTQVTVSS", "polyreactivity (PSR sort gate)": "low polyreactivity"}, {"sequence": "QVHLVDSGGRLVQAGGSLRLSCSASGNNFPGYAMGLYRQAPGKEREFVATITSNDGTTYYADSVKGRFTISRDNAMNTFFLQMNSLKPEDTAVYYCASVVRQYGFDYLGQGTQVTVSS", "polyreactivity (PSR sort gate)": "low polyreactivity"}, {"sequence": "QVHLVDTGGGLVQARGRLRLSCPASGYNFSYYAMASYRQAPGKERELVATIDWGGGSTYYADSVQGRFTISRDIAKNTVYLQLNSLKPEDTGVYYCAKDYYINNYGYRYVSWGKGTQVTVSS", "polyreactivity (PSR sort gate)": "low polyreactivity"}, {"sequence": "QVHLVESAAGLVQAGGSLRLSCDPSGFTFYAYPMGWYSQAPGKEREFVAAISSRGGRTYYADSVKGRFTISRDNAKNTVYLQMNSLKPEDTAVYYCNVPYYSFRALSSYYWGQGTQVTVSS", "polyreactivity (PSR sort gate)": "high polyreactivity"}, {"sequence": "QVHLVESAGCLVQAAGSLRLSCSASGFTFGYNTMGWFRQPPGKERELVAAISYGGGRTYYADSVKWRFTISRDNAKNTVYLQMNSLKPEDSAVYYCAAAPIPSLTYDYWGQGTQVTVSS", "polyreactivity (PSR sort gate)": "low polyreactivity"}, {"sequence": "QVHLVESAGGLVHAGGSHRLSCAASGFIFYRNAMGCYRQEPGKERELVAAISYRGARTYYADSVKGRFTISRDYEKNTVYLQMNSLKPEDTAVYYCAAQGVSSPGVDSWGQGTQVTVSS", "polyreactivity (PSR sort gate)": "high polyreactivity"}, {"sequence": "QVHLVESAGGLVQAGGSLSLSCHASGSTFVWNAMGWYRQAPGKEMELVATMTLSTGSTYYADSVKGRFTISRDNAKNTVYLQMNSLKPEDTAVYYCNTEIFVDIIYDYGLWGQGTQVTVSS", "polyreactivity (PSR sort gate)": "low polyreactivity"}, {"sequence": "QVHLVESGAGLVQAGGSLRLSCASSGFTFKAYAMGWYRQAPGKERELVAAITKSGGRTFYADSVKGRFTISRDNAKNTVYLQMNSLKPEDTAVYYCAASYTVYYWGQGTKVTVSS", "polyreactivity (PSR sort gate)": "high polyreactivity"}, {"sequence": "QVHLVESGGALVQAGGSLRLSCAASGSTFWFYAMLWYRQAPGKERELVAAITRSAGSTYYADSVKGRFTISRDNAKYTVFLQMNSLKPEDTAVYYCAAQRESLYGGFDSWGQGTQVTVSS", "polyreactivity (PSR sort gate)": "low polyreactivity"}, {"sequence": "QVHLVESGGALVQAGGSLRLSCAASVIVFKRYAMGWYRQAPGKEREFVATISYTGGRTYYADSVKGRFTISRDNAKNTVYFQMNSLKPEDTAGYYCATLYRSSKHQPLDYWGQGTQVTVSS", "polyreactivity (PSR sort gate)": "high polyreactivity"}, {"sequence": "QVHLVESGGALVQAGGSLRLSCASSGRTFGWNVMGWYRQAPGKERELVAAISGSGGSTYYADSLKGRFTISRDNAKNTVYLQMNSLKPEDTAVYYCAALYGPGREYDYWGQGTQVTVSS", "polyreactivity (PSR sort gate)": "low polyreactivity"}, {"sequence": "QVHLVESGGCLLQAGGSLRLSCAASGSIFIINAMGWYRQAPGKERELVAAINNGVNTYYADSVKVRFTISRDNAKNTVYLQKNSLKPEDTAVYYCAADPYFYYYGYDYWGQGTQVTVSS", "polyreactivity (PSR sort gate)": "low polyreactivity"}, {"sequence": "QVHLVESGGCLVQAGGSLRLSCAASGRTFDFYAMGWYRQAPGKERELVATITSGTSTNYADSVKGRFTISRDNAKNTVYLQMYRLKPEDTAVYYCNAGGVYPRCTFLEQGYEMDYWGQGTQVTVSS", "polyreactivity (PSR sort gate)": "low polyreactivity"}, {"sequence": "QVHLVESGGCLVQARGSLRLSCAASGRTIQLYAMGWYRHPHGKVMELVAAITWSSGRTYYADSVKGRFTISRDNANNTVYLQMNRLKQEDTAVYYCNAPRGGRNTVYYWGQGTQVTVSS", "polyreactivity (PSR sort gate)": "high polyreactivity"}, {"sequence": "QVHLVESGGGFVQAGGSLRVSCAASGRSCGYNAMGWYRQAPGKERELVAAITSGGSTYYADSVKGRFTISRDNAKHTVYLQMNSLKPEDTAVYYCAARFSYWKTKRAYDWGQGTQVTVSS", "polyreactivity (PSR sort gate)": "high polyreactivity"}, {"sequence": "QVHLVESGGGIVQAGGRLRLSCAASGLIFYHYAMGWYRQAPGKEREFVAAITVSGGSTYYADSVKGRFTITRDNAKNTVYLQMNSLKPEDSAVYYCNARSVVWWASGDYWGQGTQVTVSS", "polyreactivity (PSR sort gate)": "low polyreactivity"}, {"sequence": "QVHLVESGGGIVQAGVSLRLSCAASGRIFYGYTMGWYRQAPGKERELVASIDYSTGRTYYADSVKGRFTISRDNAKYTVYLQMNSLKPEDTAVYYCNADPNYSFLRYDYWGQGTQVTVSS", "polyreactivity (PSR sort gate)": "high polyreactivity"}, {"sequence": "QVHLVESGGGKVQAGGSLRLSCAASGGTFYQYAMGWYRQAPGKESELVAAITRSGGRTYYADSVKGRFTISRDNAKNTVYFQMNSLKPEDTAVYYCAAEDVGPPDFYYWGQGTQVNVSS", "polyreactivity (PSR sort gate)": "high polyreactivity"}, {"sequence": "QVHLVESGGGLDQAGGSLRLRCAASGRIFRHYAMGWYRQAPGTERELVAAYRWSCGSTYYADSEKGRFTISRDNAKNTVYLQMNSLKPEDNAVYYCATRDAVGHRPSGPYQLYDYWGQGTQVTVSS", "polyreactivity (PSR sort gate)": "low polyreactivity"}, {"sequence": "QVHLVESGGGLDQAGGSLRLSCAASGSIYGPYAMGWYRQAPGKERELVAAIRSGGSTNYADSVKGRFTITRDNAKNTVYLLMTSLKPEDTAVYYCAAEYWGYPYDYWGQGTQVTVSS", "polyreactivity (PSR sort gate)": "low polyreactivity"}, {"sequence": "QVHLVESGGGLFQAGGSLRLSCAASGSTFTDYDMGWYRQAPGKDRELVASITSGGSTNYADSVKGRFTISRDNAKNTVYLQMNSLKPEDTAVYYGAAADADRKYDYWGQGTQVTVSS", "polyreactivity (PSR sort gate)": "low polyreactivity"}, {"sequence": "QVHLVESGGGLFQAGGSLRLSFAATGLTFSPYARGWYRHGPGKERELVASITNGGRTYYADSVKGRFTISRDNAKITVYLQMNSLKPEDTAVYYCAAYPRGARRLDYWGQGTQVTVSS", "polyreactivity (PSR sort gate)": "high polyreactivity"}, {"sequence": "QVHLVESGGGLFQEGGSLRLSCAPSGSNFATYTMGWYRQAPGKERELVAAIRRSGGSTYYADSVKGRFTLSRDNAKNTVYLLMNSLKPEDTEVYYCAAKHYYYSPYVRYDPPPGYYWGQGTQVTVSS", "polyreactivity (PSR sort gate)": "high polyreactivity"}, {"sequence": "QVHLVESGGGLVHAGGSLRLSCAASGFTLAWNAMGWYRQAPGKETELVATISRYGSSTSYADSVKGRFTISRDNSKNTVYLQMNSLKPEDTAVYYCAADRYTFRMDYWGQGTQVTVSS", "polyreactivity (PSR sort gate)": "high polyreactivity"}, {"sequence": "QVHLVESGGGLVKAGGSLRLSCAASGRTFPYNAMGWYRQAPGKERELVAAISSGGSTNYADSVKGRFTISRDNAKNTVYLQMNSLKPEDTAVYYCATKYQRRPYRYYYWGQGTQVTVSS", "polyreactivity (PSR sort gate)": "low polyreactivity"}, {"sequence": "QVHLVESGGGLVLAGGSLRLSCAASGIIFTYAMGWYRHAPGNERELVAAIDWRGGRTYYADSLKGRFTISRDNAKNTFYLQMNSLKPEDTAVYYCAPRLPGGTYYWGQGTQVTESS", "polyreactivity (PSR sort gate)": "high polyreactivity"}, {"sequence": "QVHLVESGGGLVLAGGSLRLSCAASGSTFIWNAMGWYRQAPGKERELVAAIRRGSSTNYADSVKGRFTISRDNAKNTVYLQMNSLYPEDTAVYYCAKKPVTTDVSSETFFLEMDYWGQGTQVTVSS", "polyreactivity (PSR sort gate)": "low polyreactivity"}, {"sequence": "QVHLVESGGGLVQAAGSLRLSCAASGRTFPYNAKGWYRQAPGKERELVAAISSGGSTNYADSVKGRFTISRDNAKNTVYLQMNSLKPEDTAVYYCATKYQRRPYRYYYWGQGTQVTVSS", "polyreactivity (PSR sort gate)": "low polyreactivity"}, {"sequence": "QVHLVESGGGLVQAGCSLRLICAASRYIFGYYAMGWYRQAPGKERELVAAISTDGSTDYADSVKVRFTISRYNANNTVDLQMNRLKPEDSALYYCAKELFIVTNGVYIYDSWGEGTQVTVSS", "polyreactivity (PSR sort gate)": "low polyreactivity"}]}]}
